Legend:
Experiment in all cases: pull-down
GST tagged Pom1^FL = biological target: T1, GST tagged Pom1^FL (S. pombe, UniProt Q09690 1-1087)
T1 sequence (looked up): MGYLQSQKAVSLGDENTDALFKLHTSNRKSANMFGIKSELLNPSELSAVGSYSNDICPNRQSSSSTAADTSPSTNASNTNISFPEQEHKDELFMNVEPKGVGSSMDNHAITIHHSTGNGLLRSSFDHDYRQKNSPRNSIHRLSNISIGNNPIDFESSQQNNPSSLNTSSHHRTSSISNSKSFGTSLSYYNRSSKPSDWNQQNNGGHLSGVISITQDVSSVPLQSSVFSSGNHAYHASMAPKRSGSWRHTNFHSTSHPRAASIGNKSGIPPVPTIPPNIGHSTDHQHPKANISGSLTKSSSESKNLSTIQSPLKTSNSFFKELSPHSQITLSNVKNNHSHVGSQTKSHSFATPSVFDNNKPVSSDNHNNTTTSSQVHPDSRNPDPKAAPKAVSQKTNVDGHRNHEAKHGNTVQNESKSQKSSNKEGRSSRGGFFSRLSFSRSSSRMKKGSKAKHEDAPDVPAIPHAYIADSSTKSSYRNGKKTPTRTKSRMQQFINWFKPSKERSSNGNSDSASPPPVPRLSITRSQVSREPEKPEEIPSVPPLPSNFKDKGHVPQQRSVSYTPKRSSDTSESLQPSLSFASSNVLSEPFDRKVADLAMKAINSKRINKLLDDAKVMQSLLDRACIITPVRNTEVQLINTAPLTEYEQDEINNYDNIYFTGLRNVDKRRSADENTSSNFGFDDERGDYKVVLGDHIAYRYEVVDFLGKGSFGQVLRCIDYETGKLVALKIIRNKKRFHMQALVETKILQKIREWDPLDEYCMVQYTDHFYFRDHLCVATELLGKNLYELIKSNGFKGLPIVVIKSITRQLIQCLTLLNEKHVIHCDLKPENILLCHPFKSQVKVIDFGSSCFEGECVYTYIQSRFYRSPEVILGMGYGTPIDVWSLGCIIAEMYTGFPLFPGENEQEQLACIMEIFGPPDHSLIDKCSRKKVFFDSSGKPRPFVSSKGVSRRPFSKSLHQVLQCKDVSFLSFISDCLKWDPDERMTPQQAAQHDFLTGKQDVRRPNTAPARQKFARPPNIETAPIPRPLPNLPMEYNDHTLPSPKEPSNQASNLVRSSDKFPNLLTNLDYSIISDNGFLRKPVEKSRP

GST tagged Pom1^Δaa305N = biological target: T2, GST tagged Pom1^Δaa305N (S. pombe, UniProt Q09690 306-1087)
T2 sequence (looked up): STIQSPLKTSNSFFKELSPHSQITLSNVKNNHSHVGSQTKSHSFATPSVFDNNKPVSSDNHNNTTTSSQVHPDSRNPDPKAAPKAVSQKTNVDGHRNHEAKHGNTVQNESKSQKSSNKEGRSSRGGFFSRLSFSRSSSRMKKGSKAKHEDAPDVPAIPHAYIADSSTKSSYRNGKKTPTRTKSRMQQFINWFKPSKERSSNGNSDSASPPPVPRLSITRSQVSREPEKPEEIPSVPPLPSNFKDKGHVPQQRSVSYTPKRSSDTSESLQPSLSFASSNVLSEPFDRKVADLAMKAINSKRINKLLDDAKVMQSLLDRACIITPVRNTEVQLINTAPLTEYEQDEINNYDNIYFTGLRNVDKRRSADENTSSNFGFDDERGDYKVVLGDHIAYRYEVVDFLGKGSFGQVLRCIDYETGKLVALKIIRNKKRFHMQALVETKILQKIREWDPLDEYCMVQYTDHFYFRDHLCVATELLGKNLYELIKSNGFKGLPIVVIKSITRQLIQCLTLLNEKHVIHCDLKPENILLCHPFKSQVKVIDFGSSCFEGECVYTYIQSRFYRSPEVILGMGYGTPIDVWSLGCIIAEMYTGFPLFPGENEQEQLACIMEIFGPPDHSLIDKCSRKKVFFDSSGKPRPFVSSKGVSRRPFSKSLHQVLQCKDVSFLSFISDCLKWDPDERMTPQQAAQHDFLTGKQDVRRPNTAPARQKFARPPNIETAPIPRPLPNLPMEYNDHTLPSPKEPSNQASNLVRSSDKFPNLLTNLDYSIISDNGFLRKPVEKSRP

[1] = biological target: T3, GST tagged Pom1^aa605-1087 (S. pombe, UniProt Q09690 605-1087)
T3 sequence (looked up): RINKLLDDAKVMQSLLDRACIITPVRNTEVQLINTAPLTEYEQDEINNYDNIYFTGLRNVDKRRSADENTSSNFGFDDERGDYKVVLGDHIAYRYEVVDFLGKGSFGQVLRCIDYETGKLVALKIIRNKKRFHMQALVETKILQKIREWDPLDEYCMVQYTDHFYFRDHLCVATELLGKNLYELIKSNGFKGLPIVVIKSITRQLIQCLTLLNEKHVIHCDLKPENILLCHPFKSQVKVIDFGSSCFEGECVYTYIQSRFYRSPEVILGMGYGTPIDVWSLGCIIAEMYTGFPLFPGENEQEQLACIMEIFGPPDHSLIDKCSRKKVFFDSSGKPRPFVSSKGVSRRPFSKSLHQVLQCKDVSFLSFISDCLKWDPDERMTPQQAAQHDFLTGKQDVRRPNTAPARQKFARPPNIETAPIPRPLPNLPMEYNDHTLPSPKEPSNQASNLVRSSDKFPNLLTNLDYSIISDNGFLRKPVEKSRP

Measured: binding result

B1: MBP-tagged Ptc1^FL (enzyme, S. pombe, UniProt P40371 1-347, looked up)
chain: MKGSHPNAGSLLEPLHKLNPFSENSTSGHRKNASDHSADGETRPIAIEMKDSKGNTVPVGNSRPSKASNWLAGLMEDKNQRWRRSMEDTHICLYDFGGNQDDGFVAVYDGHAGIQASDYCQKNLHKVLLEKVRNEPDRLVTDLMDETFVEVNSKIAKATHNDICGCTAAVAFFRYEKNRTRRVLYTANAGDARIVLCRDGKAIRLSYDHKGSDANESRRVTQLGGLMVQNRINGVLAVTRALGDTYLKELVSAHPFTTETRIWNGHDEFFIIACDGLWDVVSDQEAVDFVRNFVSPREAAVRLVEFALKRLSTDNITCIVVNLTRNPGDLDDSGLTADNDSYSNDYY
binds: all assays above
